Measured values: patent publication US20250057918A1 (YALE UNIVERSITY, published 2025)

B1: 6-12 (ligand)
chain: YFGKLESKLSVIRNLNDQVLFIDQGNRPLFEDMTDSDCRDNAPRTIFIISKYSDSLARGLAVTISVKCEKISTLSCENKIISFKEMNPPDNIKDTKSDIIFFQRDVPGHSRKMQFESSSYEGYFLACEKERDLFKLILKKEDELGDRSIMFTVQNED
notes: recombinant with C-terminal hexahistidine tag in SPR and cell assays; also called h6-12; version 2.0 human DR-IL-18 variant
B2: hA8 (ligand)
chain: YFGKLESRLSVIRNLNDQVLFIDQGNRPLFEDMTDSDCRDNAPRTIFIISKYKDKQPRAQAVTISVKCEKISTLSCENKIISFKEMNPPDNIKDTKSDIIFFQRDVPGHKHKMQFESSSYEGYFLACEKERDLFKLILKKEDELGDRSIMFTIQNED
notes: also called human DR-IL-18 variant A8
B3: hCS3 (ligand)
chain: RFGKLESKLSVIRNLNDQVLFIDQGNRPLFEDMTDSDCRDNAPRTIFIISTYKDSQPRGKAVTISVKCEKISTLSCENKIISFKEMNPPDNIKDTKSDIIFFQRDVPGHKHKMQFESSSYEGYFLACEKERDLFKLILKKEDELGDRSIMFTVQNED
notes: recombinant with C-terminal hexahistidine tag in SPR and cell assays
B4: 6-31 (ligand)
chain: YFGKLESKLSVIRNLNDQVLFIDQGNRPLFEDMTDSDCRDNAPRTIFIISKYGDSGARGLAVTISVKCEKISTLSCENKIISFKEMNPPDNIKDTKSDIIFFERDVPGHSGKVQFESSSYEGYFLACEKERDLFKLILKKEDELGDRSIMFTVQNED
notes: recombinant with C-terminal hexahistidine tag in SPR and cell assays; also called h6-31; version 2.0 human DR-IL-18 variant
B5: hB9 (ligand)
chain: RFGKHESKLSVIRNLNDQVLFIDQGNRPLFEDMTDSDCRDNAPRTIFIISTYRDSQPRGKAVTISVKCEKISTLSCENKIISFKEMNPPDNIKDTKSDIIFFERNVPGHKYKMQFESSSYEGYFLACEKERDLFKLILKKEDELGDRSIMFTVQNED
B6: hH3 (ligand)
chain: RFGKLESRLSVIRNLNDQVLFIDQGNRPLFEDMTDSDCRDNAPRTIFIISTYKDSQPRGKAVTISVKCEKISTLSCENKIISFKEMNPPDNIKDTKSDIIFFQRDVPGHKHKMQFESSSYEGYFLACEKERDLFKLILKKEDELGDRSIMFTVQNED
B7: 6-27 (ligand)
chain: YFGKLESKLSVIRNLNDQVLFIDQGNRPLFEDMTDSDCRDNAPRTIFIISKYSDSRARGLAVTISVKCEKISTLSCENKIISFKEMNPPDNIKDTKSDIIFFARSVPGHGRKTQFESSSYEGYFLACEKERDLFKLILKKEDELGDRSIMFTVQNED
notes: recombinant with C-terminal hexahistidine tag in SPR and cell assays; also called h6-27; version 2.0 human DR-IL-18 variant
B8: mB1 (ligand)
chain: HFGRLHCTTAVIRNINDQVLFVDKRQPVFEDMTDIDQSASEPQTRLIIYGYADSDARAKAVTLSVKDSKMSTLSCKNKIISFEEMDPPENIDDIQSDLIFFQKSVPGHNKMEFESSLYEGHFLACQKEDDAFKLILKKKDENGDKSVMFTVTNLHQS
notes: recombinant with C-terminal hexahistidine tag in SPR
B9: mCS1 (ligand)
chain: NFGRLHCTTAVIRNINDQVLFVDKRQPVFEDMTDIDQSASEPQTRLIIYGYADSRVRGKAVTLSVKDSKMSTLSCKNKIISFEEMDPPENIDDIQSDLIFFQKRVPGHNKMEFESSLYEGHFLACQKEDDAFKLILKKKDENGDKSVMFTLTNLHQS
notes: as for B8
B10: mCS2 (ligand)
chain: HFGRLHCTTAVIRNINDQVLFVDKRQPVFEDMTDIDQSASEPQTRLIIYAYGDSRARGKAVTLSVKDSKMSTLSCKNKIISFEEMDPPENIDDIQSDLIFFQKRVPGHNKMEFESSLYEGHFLACQKEDDAFKLILKKKDENGDKSVMFTLTNLHQS
notes: recombinant with C-terminal hexahistidine tag in SPR; also called DR-IL-18 (mCS2); DR-18 variant mCS2
B11: mC1 (ligand)
chain: NFGRLHCTTAVIRNINDQVLFVDKRQPVFEDMTDIDQSASEPQTRLIIYAYVDRRLRGKAVTLSVKDSKMSTLSCKNKIISFEEMDPPENIDDIQSDLIFFQKKVPGHNKMEFESSLYEGHFLACQKEDDAFKLILKKKDENGDKSVMFTLTNLHQS
notes: as for B8

Key:
[1] = target: T1, human IL-18BP (amino acids 31-194) (human, UniProt O95998 31-194, biotinylated on the AviTag (BirA ligase) where immobilized or used for staining); experiment: on-yeast isotherms; KD IL-18BP / KD IL-18Rα (20 µM used for NBD)
T1 construct: Secreted decoy receptor; made in insect cells (gp67 signal peptide); also called hIL-18BP
T1 sequence: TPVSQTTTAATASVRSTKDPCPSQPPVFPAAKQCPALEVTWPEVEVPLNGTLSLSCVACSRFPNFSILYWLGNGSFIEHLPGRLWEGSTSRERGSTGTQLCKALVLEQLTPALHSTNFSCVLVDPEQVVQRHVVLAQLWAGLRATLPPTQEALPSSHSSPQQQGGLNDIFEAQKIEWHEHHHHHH

[2] = target: T1, human IL-18BP (amino acids 31-194); experiment: SPR; KD BP / KD Ra normalized to WT IL-18
[3] = target: T2, IL-18 receptor (IL-18R) on HEK-Blue IL-18 reporter cells (UniProt Q13478 19-541; O95256 20-599, limits assumed); experiment: cell-based or functional assay
T2 sequence (looked up) 1: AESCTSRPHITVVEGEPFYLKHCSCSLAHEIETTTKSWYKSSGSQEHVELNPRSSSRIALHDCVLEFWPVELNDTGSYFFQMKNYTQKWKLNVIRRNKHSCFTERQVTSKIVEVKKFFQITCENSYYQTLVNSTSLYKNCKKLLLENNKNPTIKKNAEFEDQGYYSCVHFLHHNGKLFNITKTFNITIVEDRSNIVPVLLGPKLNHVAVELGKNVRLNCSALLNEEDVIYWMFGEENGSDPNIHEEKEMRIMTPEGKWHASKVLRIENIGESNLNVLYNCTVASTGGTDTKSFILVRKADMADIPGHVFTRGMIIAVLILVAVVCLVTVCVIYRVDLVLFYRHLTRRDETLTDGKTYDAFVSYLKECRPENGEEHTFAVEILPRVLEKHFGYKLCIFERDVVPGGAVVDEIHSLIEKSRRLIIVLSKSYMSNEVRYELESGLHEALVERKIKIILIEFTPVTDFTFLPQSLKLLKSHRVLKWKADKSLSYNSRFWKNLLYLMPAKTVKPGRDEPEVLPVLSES
T2 sequence (looked up) 2: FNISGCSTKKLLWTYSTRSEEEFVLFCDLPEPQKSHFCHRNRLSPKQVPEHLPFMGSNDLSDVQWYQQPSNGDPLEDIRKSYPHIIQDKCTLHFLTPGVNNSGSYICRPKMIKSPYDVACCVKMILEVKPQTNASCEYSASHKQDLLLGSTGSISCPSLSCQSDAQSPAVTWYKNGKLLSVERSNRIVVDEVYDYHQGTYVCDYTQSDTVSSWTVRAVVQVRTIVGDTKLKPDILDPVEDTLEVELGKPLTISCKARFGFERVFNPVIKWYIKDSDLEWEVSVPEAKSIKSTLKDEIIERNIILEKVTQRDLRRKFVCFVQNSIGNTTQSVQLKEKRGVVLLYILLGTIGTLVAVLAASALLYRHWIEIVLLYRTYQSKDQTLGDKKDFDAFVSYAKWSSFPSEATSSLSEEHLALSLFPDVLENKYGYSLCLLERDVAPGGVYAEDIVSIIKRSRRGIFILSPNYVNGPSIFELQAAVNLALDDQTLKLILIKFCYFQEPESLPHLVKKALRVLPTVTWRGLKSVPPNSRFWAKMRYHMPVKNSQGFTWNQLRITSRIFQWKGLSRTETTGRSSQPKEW

[4] = target: T1, human IL-18BP (amino acids 31-194); experiment: SPR; KD IL-18BP / KD IL-18Rα; SPR; ratio of two KDs
Procedure: (§1) Experiments were conducted using a Biacore™ T100 (Protein analysis interaction system) and carried out at 25° C. Biotinylated IL-18Rα or TL-18BP were immobilized onto a Biacore™ biotin capture chip (Series S CAP sensor chip, GE Healthcare) to yield an Rmax of ˜50 RU (IL-18Rα) or ˜10 RU (IL-18BP). Measurements were made with serial dilutions of the IL-18 variants in HEPES buffered Saline-P+ buffer (10 mM HEPES pH 7.4, 150 mM NaCl, 0.005% surfactant P20). The surface was regenerated by three 60-see injections of regeneration buffer (3/4 (v/v) 8M guanidine hydrochloride with 1/4 (v/v) 1M sodium hydroxide). Experiments were performed in multiple channels simultaneously for increased observations. All data were analyzed with the Biacore™ T100 evaluation software version 2.0 with a 1:1 Langmuir binding model.
To additionally characterize the receptor binding activities of the DR-IL-18 variants, the cytokines were expressed recombinantly and surface plasmon resonance for IL-18Rα and IL-18BP was performed (see FIG. 5B for representative traces).

[5] = target: T1, human IL-18BP (amino acids 31-194); experiment: on-yeast isotherms; KD IL-18BP / KD IL-18Rα; on-yeast isotherms; ratio of two KDs
[6] = target: T3, mouse IL-18BP (amino acids 31-194) (mouse, UniProt Q9Z0M9 29-193, biotinylated on the AviTag (BirA ligase)); experiment: on-yeast isotherms; KD IL-18BP / KD IL-18Rα (10 µM used for NBD); on-yeast isotherms; 10 µM put in for NBD
T3 construct: Secreted decoy receptor; made in Expi293 cells (H7 signal peptide); the stated range is the same as for the human protein; also called mIL-18BP
T3 sequence: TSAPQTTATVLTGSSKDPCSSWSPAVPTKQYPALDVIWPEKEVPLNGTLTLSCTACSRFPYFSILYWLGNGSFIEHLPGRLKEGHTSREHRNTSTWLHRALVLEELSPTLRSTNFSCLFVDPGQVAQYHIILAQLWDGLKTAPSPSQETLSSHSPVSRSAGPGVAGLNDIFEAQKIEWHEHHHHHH

[7] = target: T3, mouse IL-18BP (amino acids 31-194); experiment: SPR; KD IL-18BP / KD IL-18Rα; SPR; ratio of two KDs
Procedure: By contrast, very little binding is observed with the same variants and mIL-18BP (right). (FIG. 11B) Representative surface plasmon resonance sensorgrams between immobilized biotinylated mIL-18BP and the murine DR-IL-18 variants.
as §1

[8] = target: T4, mouse IL-18Rα ectodomain (amino acids 19-329) (mouse, UniProt Q61098 19-329, biotinylated on the AviTag (BirA ligase)); experiment: flow cytometry, mIL-18Rα titrated on yeast-displayed murine IL-18 variant (binding isotherm, %Max)
T4 construct: range 19-329; Secreted from Expi293 cells (H7 signal peptide); also called mIL-18Rα; Ra
T4 sequence: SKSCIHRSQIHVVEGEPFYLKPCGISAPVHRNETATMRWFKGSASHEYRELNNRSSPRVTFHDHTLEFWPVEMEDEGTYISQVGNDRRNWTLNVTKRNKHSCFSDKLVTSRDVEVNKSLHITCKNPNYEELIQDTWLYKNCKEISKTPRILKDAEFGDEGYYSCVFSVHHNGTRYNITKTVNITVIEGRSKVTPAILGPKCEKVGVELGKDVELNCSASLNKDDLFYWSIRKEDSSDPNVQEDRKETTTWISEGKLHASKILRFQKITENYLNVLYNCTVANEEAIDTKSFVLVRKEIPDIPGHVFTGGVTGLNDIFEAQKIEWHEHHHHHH

[9] = target: T3, mouse IL-18BP (amino acids 31-194); experiment: SPR; KD BP / KD Ra normalized to WT IL-18

Binder	KD ratio: IL-18BP/IL-18Rα [1]	IL-18 BP:Ra Dissociation Constant Ratio [2]	KD ratio: IL-18BP/IL-18Rα [6]	KD ratio: IL-18BP/IL-18Rα [7]	also measured
B1	1200	> 9.32e+06			EC50 (read off the curve); HEK-Blue IL-18 SEAP reporter, OD 655 nM [3]: ~0.6 nM
B2	> 347				
B3		4350			KD ratio: IL-18BP/IL-18Rα [4]: 2.27; KD ratio: IL-18BP/IL-18Rα [5]: 103
B4	490	> 1.06e+06			EC50 (read off the curve); HEK-Blue IL-18 SEAP reporter, OD 655 nM [3]: ~4 nM
B5	> 157				
B6	> 239				
B7	480	> 5.86e+06			EC50 (read off the curve); HEK-Blue IL-18 SEAP reporter, OD 655 nM [3]: ~1 nM
B8			> 559	21000	EC50 (read off the curve) [8]: ~20 nM
B9			> 935	7040	EC50 (read off the curve) [8]: ~10 nM
B10			> 885	133000	EC50 (read off the curve) [8]: ~10 nM; IL-18 BP:Ra Dissociation Constant Ratio [9]: > 7.5e+07
B11			> 233	26300	
